Measured values published in patent US20090226444A1 (MICROMET, published 2009).
Where a chain is given by its changes, count along the chain named. Values belong to the binder of their own block, whether it stands above or below them.

Legend:
[1] = target: T1, human CEA (carcinoembryonic antigen-related cell adhesion molecule 5; CEACAM5), membrane-bound on cells (human, UniProt P06731 35-685); test: cell-based or functional assay
T1 sequence: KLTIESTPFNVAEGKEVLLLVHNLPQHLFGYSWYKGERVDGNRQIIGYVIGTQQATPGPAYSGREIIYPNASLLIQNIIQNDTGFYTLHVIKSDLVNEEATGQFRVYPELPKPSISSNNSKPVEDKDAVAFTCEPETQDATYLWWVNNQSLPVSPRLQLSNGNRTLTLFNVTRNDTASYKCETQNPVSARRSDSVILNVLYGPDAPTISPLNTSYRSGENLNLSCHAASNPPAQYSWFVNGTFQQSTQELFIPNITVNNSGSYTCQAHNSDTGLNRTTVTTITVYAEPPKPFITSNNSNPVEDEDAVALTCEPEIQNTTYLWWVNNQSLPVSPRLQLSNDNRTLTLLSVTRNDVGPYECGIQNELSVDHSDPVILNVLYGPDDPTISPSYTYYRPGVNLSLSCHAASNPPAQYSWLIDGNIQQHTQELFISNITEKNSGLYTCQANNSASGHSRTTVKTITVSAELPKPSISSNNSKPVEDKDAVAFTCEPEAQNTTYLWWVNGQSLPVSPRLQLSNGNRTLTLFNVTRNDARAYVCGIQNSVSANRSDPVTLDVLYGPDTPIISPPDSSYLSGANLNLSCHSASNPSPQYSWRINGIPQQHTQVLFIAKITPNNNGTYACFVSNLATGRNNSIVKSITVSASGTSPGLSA

[2] = target: T2, soluble human CEA antigen (sCEA; Abcam, Ltd, Cambridge UK) (human, UniProt P06731 35-685, limits assumed); test: cell-based or functional assay
T2 sequence: T1 sequence

[3] = target: T2, soluble human CEA antigen (sCEA; Abcam, …); test: not described (own data)

B1: IgG1 A5, derived from scFv A5 (antibody, V domains shown)
VH: EVQLVESGGGVVQPGRSLRLSCAASGFTLSTYAMHWVRQAPGKGLEWVALISNDGSNKYYADSVKGRFTISRDNSKNTLYLQMNSLRAEDTAVYYCARDRGLRFYFDYWGQGTTVTVSS
VL: QAVLTQPASLSASPGASASLTCTLRRGINVGAYSIYWYQQKPGSPPQYLLRYKSDSDKQQGSGVSSRFSASKDASANAGILLISGLQSEDEADYYCMIWHSGASAVFGGGTKLTVLG
- ADCC EC50, sCEA 0 ug/ml [1]: 2.7 ng/mL
- ADCC EC50 in the presence of sCEA 1 ug/ml [1]: 4 ng/mL
- ADCC EC50 in the presence of sCEA 10 ug/ml [1]: 2.8 ng/mL
- Inhibitory factor (ADCC EC50 with 1 ug/ml sCEA divided by EC50 without sCEA) [2]: 1.5 fold
- Inhibitory factor (ADCC EC50 with 10 ug/ml sCEA divided by EC50 without sCEA) [2]: 1 fold

B3: IgG1 D8, derived from scFv D8 (antibody, V domains shown)
VH: B1 VH with A97T
VL: B1 VL
- ADCC EC50, sCEA 0 ug/ml [1]: 4.4 ng/mL
- ADCC EC50 in the presence of sCEA 1 ug/ml [1]: 14.7 ng/mL
- ADCC EC50 in the presence of sCEA 10 ug/ml [1]: 6.3 ng/mL
- Inhibitory factor (ADCC EC50 with 1 ug/ml sCEA divided by EC50 without sCEA) [2]: 3.3 fold
- Inhibitory factor (ADCC EC50 with 10 ug/ml sCEA divided by EC50 without sCEA) [2]: 1.4 fold

The next lines start with the values.

- ADCC EC50, sCEA 0 ug/ml [1]: 4.8 ng/mL
- ADCC EC50 in the presence of sCEA 1 ug/ml [1]: 45.3 ng/mL
- ADCC EC50 in the presence of sCEA 10 ug/ml [1]: 53.4 ng/mL
- Inhibitory factor (ADCC EC50 with 1 ug/ml sCEA divided by EC50 without sCEA) [2]: 9.4 fold
- Inhibitory factor (ADCC EC50 with 10 ug/ml sCEA divided by EC50 without sCEA) [2]: 11.1 fold
B2: IgG1 B9, derived from scFv B9 (antibody, V domains shown)
VH: EVQLVESGGGLVQPGRSLRLSCAASGFTVSSYWMHWVRQAPGKGLEWVGFIRNKANGGTTEYAASVKGRFTISRDDSKNTLYLQMNSLRAEDTAVYYCARDRGLRFYFDYWGQGTTVTVSS
VL: B1 VL

- binding result [3]: binds
B4: murine monoclonal antibody A5B7 (antibody, V domains shown)
VH: EVQLVESGGGLVQPGGSLRLSCATSGFTFTDYYMNWVRQPPGKALEWLGFIGNKANGYTTEYSASVKGRFTISRDKSQSILYLQMNTLRAEDSATYYCTRDRGLRFYFDYWGQGTTVTVSS
VL: DIELTQSPAILSASPGEKVTMTCRASSSVTYIHWYQQKPGSSPKSWIYATSNLASGVPARFSGSGSGTSYSLTISRVEAEDAATYYCQHWSSKPPTFGGGTKLEIK
notes: The parental murine monoclonal; also called mAb A5B7
